Publication PMC10963267, “Rapid discovery of high-affinity antibodies via massively parallel sequencing, ribosome display and affinity screening” (Nature Biomedical Engineering, 2023)
One block for each binder: values may come before it.

Experiments:
[1] = target: T1, human epidermal growth factor receptor 2 (HER2), biotinylated (Homo sapiens, UniProt P04626, biotin); experiment: BLI; human HER2–biotin (5 µg ml^−1, 30 s) loaded on SA tip; purified Fab at 20 nM; DPBS with 0.1% BSA and 0.02% Tween 20; association 300 s, dissociation 600 s; one concentration, 1:1 fit; conditions: both partners purified
T1 construct: biotinylated human HER2, bought; also called ERBB2; source: bought: Acro Biosystems (HE2-H822R)

[2] = target: T2, hen egg lysozyme (HEL), biotinylated (Gallus gallus (hen egg white), UniProt P00698, biotin); experiment: BLI; HEL–biotin (25 µg ml^−1, 400 s) loaded on SA tip; nanobody from periplasmic extract at 50 nM in SuperBlock PBS; association 400 or 500 s, dissociation 600 s; referenced to a non-loaded SA tip; one concentration, 1:1 fit; Octet Red384; conditions: one partner purified
T2 construct: hen egg lysozyme, bought as HEL–biotin; In deep screening it was pre-complexed 1:1 with AF532-labelled streptavidin; in BLI it was loaded on a streptavidin tip; source: bought: GeneTex (GTX82960-pro)
T2 sequence (P00698 19-147): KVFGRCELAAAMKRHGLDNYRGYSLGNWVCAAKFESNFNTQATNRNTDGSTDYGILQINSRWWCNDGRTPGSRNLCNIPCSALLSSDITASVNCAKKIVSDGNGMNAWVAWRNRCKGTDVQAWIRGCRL

B1: anti-HER2 Fab HER20003 (Fab, V domains shown)
VH: QVQLVQSGAEVKKPGESLKISCKGSGYSFTSYWIAWVRQMPGKGLEYMGLIYPGDSDTKYSPSFQGQVTISVDKSVSTAYLQWSSLKPSDSAVYFCARHDVAYCSSSRCLTWPEYFQHWGQGTLVTVSS
VL: QSVLTQPPSVSAAPGQKVTISCSGSSSNIGNNYVSWYQQLPGTAPKLLIYGHTNRPAGVPDRFSGSKSGTSASLAISGFRSEDEADYYCASWDYTLSGWVFGGGTKLTVL
notes: as the heavy chain of m31 (G98A) with another CDR H3; as the light chain of m31; source: CHO cells, transiently transfected, purified (CaptureSelect CH1-XL)
Kd [1]: 2.8 nM

B2: anti-HER2 Fab HER20025 (Fab, V domains shown)
VH: QVQLVQSGAEVKKPGESLKISCKGSGYSFTSYWIAWVRQMPGKGLEYMGLIYPGDSDTKYSPSFQGQVTISVDKSVSTAYLQWSSLKPSDSAVYFCARHDVGYCDTPTCNKWPEYFQHWGQGTLVTVSS
VL: QSVLTQPPSVSAAPGQKVTISCSGSSSNIGNNYVSWYQQLPGTAPKLLIYGHTNRPAGVPDRFSGSKSGTSASLAISGFRSEDEADYYCASWDYTLSGWVFGGGTKLTVL
notes: as the heavy chain of m31 (G98A) with another CDR H3; as the light chain of m31; From the random set (random/mut); source: CHO cells, transiently transfected, purified (CaptureSelect CH1-XL)
Kd [1]: 0.283 nM

B4: anti-HER2 Fab HER20013 (Fab, V domains shown)
VH: QVQLVQSGAEVKKPGESLKISCKGSGYSFTSYWIAWVRQMPGKGLEYMGLIYPGDSDTKYSPSFQGQVTISVDKSVSTAYLQWSSLKPSDSAVYFCARHDVGYCSTSRCLTWPEYFQHWGQGTLVTVSS
VL: QSVLTQPPSVSAAPGQKVTISCSGSSSNIGNNYVSWYQQLPGTAPKLLIYGHTNRPAGVPDRFSGSKSGTSASLAISGFRSEDEADYYCASWDYTLSGWVFGGGTKLTVL
notes: as the heavy chain of m31 (G98A) with another CDR H3; as the light chain of m31; Top clone of the ML set (ml/mut); source: CHO cells, transiently transfected, purified (CaptureSelect CH1-XL)
Kd [1]: 0.0607 nM

B5: anti-HER2 Fab HER20010 (Fab, V domains shown)
VH: QVQLVQSGAEVKKPGESLKISCKGSGYSFTSYWIAWVRQMPGKGLEYMGLIYPGDSDTKYSPSFQGQVTISVDKSVSTAYLQWSSLKPSDSAVYFCARHDVAYCSSSRCLDWPEYFQHWGQGTLVTVSS
VL: QSVLTQPPSVSAAPGQKVTISCSGSSSNIGNNYVSWYQQLPGTAPKLLIYGHTNRPAGVPDRFSGSKSGTSASLAISGFRSEDEADYYCASWDYTLSGWVFGGGTKLTVL
notes: as the heavy chain of m31 (G98A) with another CDR H3; as the light chain of m31; From the HER2affmat library; source: CHO cells, transiently transfected, purified (CaptureSelect CH1-XL)
fold improvement in affinity over G98A [1]: ~300 fold

B8: anti-HER2 Fab HER20015 (Fab, V domains shown)
VH: QVQLVQSGAEVKKPGESLKISCKGSGYSFTSYWIAWVRQMPGKGLEYMGLIYPGDSDTKYSPSFQGQVTISVDKSVSTAYLQWSSLKPSDSAVYFCARHDVGYCDTPTCDKWPEYFQHWGQGTLVTVSS
VL: QSVLTQPPSVSAAPGQKVTISCSGSSSNIGNNYVSWYQQLPGTAPKLLIYGHTNRPAGVPDRFSGSKSGTSASLAISGFRSEDEADYYCASWDYTLSGWVFGGGTKLTVL
notes: as the heavy chain of m31 (G98A) with another CDR H3; as the light chain of m31; From the ML set (ml/mut); source: CHO cells, transiently transfected, purified (CaptureSelect CH1-XL)
fold improvement in affinity over G98A [1]: > 1000 fold

B9: anti-HER2 Fab HER20009 (Fab, V domains shown)
VH: QVQLVQSGAEVKKPGESLKISCKGSGYSFTSYWIAWVRQMPGKGLEYMGLIYPGDSDTKYSPSFQGQVTISVDKSVSTAYLQWSSLKPSDSAVYFCARHDVAYCSSSRCLEWPEYFQHWGQGTLVTVSS
VL: QSVLTQPPSVSAAPGQKVTISCSGSSSNIGNNYVSWYQQLPGTAPKLLIYGHTNRPAGVPDRFSGSKSGTSASLAISGFRSEDEADYYCASWDYTLSGWVFGGGTKLTVL
notes: as for B5
fold improvement in affinity over G98A [1]: ~300 fold

B10: anti-HER2 Fab HER20006 (Fab, V domains shown)
VH: QVQLVQSGAEVKKPGESLKISCKGSGYSFTSYWIAWVRQMPGKGLEYMGLIYPGDSDTKYSPSFQGQVTISVDKSVSTAYLQWSSLKPSDSAVYFCARHDVGWCTSSNCAKWPEYFQHWGQGTLVTVSS
VL: QSVLTQPPSVSAAPGQKVTISCSGSSSNIGNNYVSWYQQLPGTAPKLLIYGHTNRPAGVPDRFSGSKSGTSASLAISGFRSEDEADYYCASWDYTLSGWVFGGGTKLTVL
notes: as for B5
fold improvement in affinity over G98A [1]: ~300 fold

B11: anti-HER2 Fab HER20004 (Fab, V domains shown)
VH: QVQLVQSGAEVKKPGESLKISCKGSGYSFTSYWIAWVRQMPGKGLEYMGLIYPGDSDTKYSPSFQGQVTISVDKSVSTAYLQWSSLKPSDSAVYFCARHDVGQCDSSNCAKWPEYFQHWGQGTLVTVSS
VL: QSVLTQPPSVSAAPGQKVTISCSGSSSNIGNNYVSWYQQLPGTAPKLLIYGHTNRPAGVPDRFSGSKSGTSASLAISGFRSEDEADYYCASWDYTLSGWVFGGGTKLTVL
notes: as for B1
Kd [1]: 3.4 nM

B12: anti-HEL nanobody M15 (VHH)
VHH: QVQLQESGGGLVQAGGSLRLSCAASGTISSQKLMGWYRQAPGKEREFVAAINDGATTNYADSVKGRFTISRDNAKNTVYLQMNSLKPEDTAVYYCAAYYDVRGYYWGTFGYWGQGTQVTVSS
notes: synthetic nanobody from the yeast surface display library; also called VHH-M15; source: E. coli, periplasmic extract (vector pSBinit)
Kd [2]: 9.81 nM

B15: anti-HEL nanobody M5 (VHH)
VHH: QVQLQESGGGLVQAGGSLRLSCAASGSIFYYTDMGWYRQAPGKEREFVASIGYGGITYYADSVKGRFTISRDNAKNTVYLQMNSLKPEDTAVYYCAVQRSFESYGYWGHVYWGQGTQVTVSS
notes: synthetic nanobody from the yeast surface display library; also called VHH-M5; source: E. coli, periplasmic extract (vector pSBinit)
Kd [2]: 19 nM

B16: anti-HEL nanobody M6 (VHH)
VHH: QVQLQESGGGLVQAGGSLRLSCAASGSISRDPDMGWYRQAPGKEREFVASISGGTTTYYADSVKGRFTISRDNAKNTVYLQMNSLKPEDTAVYYCAVQRSFESYGYWGHVYWGQGTQVTVSS
notes: synthetic nanobody from the yeast surface display library; also called VHH-M6; source: E. coli, periplasmic extract (vector pSBinit)
Kd [2]: 14.2 nM

More lines, now with the values ahead:

binding result [1]: binds
B3: anti-HER2 Fab HER20011 (Fab, V domains shown)
VH: QVQLVQSGAEVKKPGESLKISCKGSGYSFTSYWIAWVRQMPGKGLEYMGLIYPGDSDTKYSPSFQGQVTISVDKSVSTAYLQWSSLKPSDSAVYFCARHDVGLCSSSNCAKWPEYFQHWGQGTLVTVSS
VL: QSVLTQPPSVSAAPGQKVTISCSGSSSNIGNNYVSWYQQLPGTAPKLLIYGHTNRPAGVPDRFSGSKSGTSASLAISGFRSEDEADYYCASWDYTLSGWVFGGGTKLTVL
notes: as for B5

binding result [1]: binds
B6: anti-HER2 Fab HER20008 (Fab, V domains shown)
VH: QVQLVQSGAEVKKPGESLKISCKGSGYSFTSYWIAWVRQMPGKGLEYMGLIYPGDSDTKYSPSFQGQVTISVDKSVSTAYLQWSSLKPSDSAVYFCARHDVAYCDSDRCAKWPEYFQHWGQGTLVTVSS
VL: QSVLTQPPSVSAAPGQKVTISCSGSSSNIGNNYVSWYQQLPGTAPKLLIYGHTNRPAGVPDRFSGSKSGTSASLAISGFRSEDEADYYCASWDYTLSGWVFGGGTKLTVL
notes: as for B5

binding result [1]: binds
B7: anti-HER2 Fab HER20007 (Fab, V domains shown)
VH: QVQLVQSGAEVKKPGESLKISCKGSGYSFTSYWIAWVRQMPGKGLEYMGLIYPGDSDTKYSPSFQGQVTISVDKSVSTAYLQWSSLKPSDSAVYFCARHDVGYCMSSNCAKWPEYFQHWGQGTLVTVSS
VL: QSVLTQPPSVSAAPGQKVTISCSGSSSNIGNNYVSWYQQLPGTAPKLLIYGHTNRPAGVPDRFSGSKSGTSASLAISGFRSEDEADYYCASWDYTLSGWVFGGGTKLTVL
notes: as for B5

binding result [2]: binds
B13: anti-HEL nanobody C1 (VHH)
VHH: QVQLQESGGGLVQAGGSLRLSCAASGSIFWAGYMGWYRQAPGKEREFVAAIDYGANTYYADSVKGRFTISRDNAKNTVYLQMNSLKPEDTAVYYCAVDRQPYYRRDNSHLYWGQGTQVTVSS
notes: synthetic nanobody from the yeast surface display library, picked as a random colony after R3 MACS; Framework is that of the library; source: E. coli, periplasmic extract (vector pSBinit)

binding result [2]: binds
B14: anti-HEL nanobody C2 (VHH)
VHH: QVQLQESGGGLVQAGGSLRLSCAASGNISADASMGWYRQAPGKEREFVAAIARGATTYYADSVKGRFTISRDNAKNTVYLQMNSLKPEDTAVYYCAVDQYDVTKRYIGHIYWGQGTQVTVSS
notes: as for B13
